According to publication PMC3580588, “Fully recombinant IgG2a Fc multimers (stradomers) effectively treat collagen-induced arthritis and prevent idiopathic thrombocytopenic purpura in mice” (Arthritis Research & Therapy, 2012):
Like-named read-outs stand apart in the source and are kept apart here.

T1: recombinant mouse FcγRI (mouse, UniProt P26151 25-297)
T1 construct: mouse Fc gamma receptor I, recombinant; source: bought: R&D Systems
T1 sequence (looked up): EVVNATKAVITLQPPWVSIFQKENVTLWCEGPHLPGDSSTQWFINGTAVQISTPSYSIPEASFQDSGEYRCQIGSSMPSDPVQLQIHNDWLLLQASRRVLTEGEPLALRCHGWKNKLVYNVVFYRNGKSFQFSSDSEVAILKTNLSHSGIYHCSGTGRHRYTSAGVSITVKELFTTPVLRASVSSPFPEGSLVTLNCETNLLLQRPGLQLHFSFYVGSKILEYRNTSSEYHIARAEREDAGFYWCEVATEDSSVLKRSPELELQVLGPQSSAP

T2: recombinant mouse SIGN-R1 (mouse), Q8CJ91
T2 chain: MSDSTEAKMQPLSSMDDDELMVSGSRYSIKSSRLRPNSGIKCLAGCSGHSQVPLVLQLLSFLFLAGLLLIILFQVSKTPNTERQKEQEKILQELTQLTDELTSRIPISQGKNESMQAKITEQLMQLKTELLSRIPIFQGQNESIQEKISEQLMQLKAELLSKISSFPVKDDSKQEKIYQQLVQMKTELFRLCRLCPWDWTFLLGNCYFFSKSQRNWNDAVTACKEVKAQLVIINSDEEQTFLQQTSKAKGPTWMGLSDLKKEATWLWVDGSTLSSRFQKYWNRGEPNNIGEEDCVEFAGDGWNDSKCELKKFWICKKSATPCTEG

B1: recombinant mouse FcγRIV (receptor, UniProt A0A0B4J1G0 21-203, looked up)
chain: GLQKAVVNLDPKWVRVLEEDSVTLRCQGTFSPEDNSIKWFHNESLIPHQDANYVIQSARVKDSGMYRCQTALSTISDPVQLEVHMGWLLLQTTKWLFQEGDPIHLRCHSWQNRPVRKVTYLQNGKGKKYFHENSELLIPKATHNDSGSYFCRGLIGHNNKSSASFRISLGDPGSPSMFPPWHQ
notes: mouse Fc gamma receptor IV, recombinant; source: bought: R&D Systems
B2: 2A-ILZN: stradomer with the isoleucine zipper linked to the amino terminus of murine IgG2a Fc (Fc fusion)
chain: EPRGPTIKPCPPCKCPAPNLLGGPSVFIFPPKIKDVLMISLSPIVTCVVVDVSEDDPDVQISWFVNNVEVHTAQTQTHREDYNSTLRVVSALPIQHQDWMSGKEFKCKVNNKDLPAPIERTISKPKGSVRAPQVYVLPPPEEEMTKKQVTLTCMVTDFMPEDIYVEWTNNGKTELNYKNTEPVLDSDGSYFMYSKLRVEKKNWVERNSYSCSVVHEGLHNHHTTKSFSRTPGK
modifications: not checked
B3: 2A-ILZC: stradomer with the isoleucine zipper linked to the carboxy terminus of murine IgG2a Fc (Fc fusion)
chain: B2 chain
modifications: not checked
B4: recombinant murine IgG2a Fc (domain or fragment, mouse, UniProt P01863 98-330, looked up)
chain: B2 chain
notes: murine IgG2a Fc: hinge, CH2 and CH3 domains, no Fab region; Runs as a homodimer (45 kDa) on non-reducing SDS-PAGE, with a weaker band at about 90 kDa; source: recombinant, from a cDNA construct; host and purification are stated for the stradomers only (HEK293, protein A-derived column)
B5: recombinant mouse FcγRIIb (receptor, UniProt P08101 30-210, looked up)
chain: THDLPKAVVKLEPPWIQVLKEDTVTLTCEGTHNPGNSSTQWFHNGRSIRSQVQASYTFKATVNDSGEYRCQMEQTRLSDPVDLGVISDWLLLQTPQLVFLEGETITLRCHSWRNKLLNRISFFHNEKSVRYHHYSSNFSIPKANHSHSGDYYCKGSLGRTLHQSKPVTITVQGPKSSRSLP
notes: mouse Fc gamma receptor IIb, recombinant; His tag and catalogue number are told for the biolayer interferometry only; also called His-tagged mouse FcγRIIb; source: bought: R&D Systems
B6: recombinant mouse FcγRIII (receptor, UniProt P08508 31-215, looked up)
chain: ALPKAVVKLDPPWIQVLKEDMVTLMCEGTHNPGNSSTQWFHNGRSIRSQVQASYTFKATVNDSGEYRCQMEQTRLSDPVDLGVISDWLLLQTPQRVFLEGETITLRCHSWRNKLLNRISFFHNEKSVRYHHYKSNFSIPKANHSHSGDYYCKGSLGSTQHQSKPVTITVQDPATTSSISLVWYHT
notes: mouse Fc gamma receptor III, recombinant; His tag and catalogue number are told for the biolayer interferometry only; also called His-tagged mouse FcγRIII; source: bought: R&D Systems

Assays:
recombinant mouse FcγRI = target: T1, recombinant mouse FcγRI; assay: SPR; Biacore 3000 or T100; receptors immobilised by amine coupling on CM4 (FcγRs) or CM5 (SIGN-R1) chips; samples 1,000 nM to 0.5 nM in HBS-EP at 20 μl/min; 1:1 Langmuir kinetic model; molecular mass of 50 kDa assigned to homodimer isolates and 150 kDa to all other preparations
[1] = target: recombinant mouse FcγRIV (mouse); assay: as above
[2] = target: recombinant mouse FcγRIIb (mouse) (UniProt P08101); assay: as above
[3] = target: recombinant mouse FcγRIII (mouse) (UniProt P08508); assay: as above
[4] = target: recombinant mouse SIGN-R1 (mouse) (UniProt Q8CJ91); assay: as above
[5] = target: recombinant mouse FcγRI (mouse) (UniProt P26151); assay: as above
[6] = target: B4; assay: as above; conditions: both partners purified
[7] = target: T2, recombinant mouse SIGN-R1 (mouse), …; assay: as above
[8] = target: the molecule itself; assay: SDS-PAGE, nonreduced against reduced; 0.5 to 2 μg of purified protein on 4-12% Bis-Tris gels, Coomassie stain; multimers present under denaturing but not reducing conditions (covalently linked)

Molecule	Kd [1]	Kd [2]	Kd [3]	Kd [6]	other results
2A-2HC: stradomer with hinge of human IgG2 linked to the carboxy terminus of murine IgG2a Fc (unfractionated) (Fc fusion)	3.03 nM	3.3 nM	4.2 nM	–	Kd (recombinant mouse FcγRI): 9.12 nM
2A-2HN: stradomer with hinge of human IgG2 linked to the amino terminus of murine IgG2a Fc (Fc fusion)	7.6 nM	3.4 nM	4.4 nM	–	Kd (recombinant mouse FcγRI): 16.3 nM; Kd [4]: 109 nM
2A-ILZC: stradomer with the isoleucine zipper linked to the carboxy terminus of murine IgG2a Fc (Fc fusion)	63.6 nM	455 nM	151 nM	–	Kd [5]: 63.4 nM
2A-ILZN: stradomer with the isoleucine zipper linked to the amino terminus of murine IgG2a Fc (Fc fusion)	0.46 nM	3.8 nM	2.3 nM	–	Kd [5]: 6.71 nM
B1	–	–	–	27.8 nM	–
B2	–	–	–	–	Kd [7]: 134 nM
B3	–	–	–	–	Kd [7]: 43.9 nM
B4	–	–	–	–	stoichiometry N [8]: 2; Kd (recombinant mouse FcγRI; both partners purified): 17.4 nM
B5	–	–	–	289 nM	–
B6	–	–	–	248 nM	–
